Assay results reported in US20190194347A1, “ANTIBODIES FOR EPIDERMAL GROWTH FACTOR RECEPTOR 3 (HER3)” (NOVARTIS AG, priority 2010, published 2019).

Legend:
[1] = biological target: endogenous human HER3 on human cancer cells (SK-Br-3, MCF7, BT-474) (human, UniProt P21860 20-1342); assay: cell-based or functional assay
[2] = biological target: T1, HER3 L268A (CD33-[Human HER3, residues 20-640, L268A]-TAG) (human, UniProt P21860 20-640); assay: ELISA titration on coated recombinant mutant HER3
T1 construct: also called HER3 L268A-Tag; not shown: C-terminal TAG (e.g., FLAG TAG)

[3] = biological target: T2, HER3 K267A (CD33-[Human HER3, residues 20-640, K267A]-TAG) (human, UniProt P21860 20-640); assay: ELISA titration on coated recombinant mutant HER3
T2 construct: also called HER3 K267A-Tag; not shown: C-terminal TAG (e.g., FLAG TAG)

Row | Binder | % inhibition of proliferation, BT-474, 10 µg/ml IgG [1] | % inhibition of proliferation, MCF7 (neuregulin stimulated), 10 µg/ml IgG [1] | % inhibition of proliferation, SK-Br-3, 10 µg/ml IgG [1] | binding result [2] | binding result [3]
1 | MOR09823 (antibody, V domains shown) VH: QVQLVESGGGLVQPGGSLRLSCAASGFTFSSYAMSWVRQAPGKGLEWVSVTGAVGRTYYPDSVKGRFTISRDNSKNTLYLQMNSLRAEDTAVYYCARWGDEGFDIWGQGTLVTVSS VL: DIQMTQSPSSLSASVGDRVTITCRASQGISNWLAWYQQKPGKAPKLLIYGASSLQSGVPSRFSGSGSGTDFTLTISSLQPEDFAVYYCQQYSSFPTTFGQGTKVEIKR | 39.8% | 82% | 39% |  | 
2 | MOR10702 (antibody, human IgG1, kappa, V domains shown) VH: EVQLLESGGGLVQPGGSLRLSCAASGFTFSSYAMSWVRQAPGKGLEWVSVISAWGHVKYYADSVKGRFTISRDNSKNTLYLQMNSLRAEDTAVYYCARWGDEGFDIWGQGTLVTVSS VL: DIQMTQSPSSLSASVGDRVTITCRASQGISNWLAWYQQKPGKAPKLLIYGASSLQSGVPSRFSGSGSGTDFTLTISSLQPEDFATYYCQQYSSFPTTFGQGTKVEIKR | 43.8% |  |  |  | 
3 | MOR09825 (antibody, human IgG1, kappa, V domains shown) VH: QVQLVESGGGLVQPGGSLRLSCAASGFTFSSYAMSWVRQAPGKGLEWVSAINSQGKSTYYADSVKGRFTISRDNSKNTLYLQMNSLRAEDTAVYYCARWGDEGFDIWGQGTLVTVSS VL: DIQMTQSPSSLSASVGDRVTITCRASQGISNWLAWYQQKPGKAPKLLIYGASSLQSGVPSRFSGSGSGTDFTLTISSLQPEDFAVYYCQQYSSFPTTFGQGTKVEIKR | 37.2% | 63% | 41% |  | 
4 | MOR09824 (antibody, human IgG1, kappa, V domains shown) VH: QVQLVESGGGLVQPGGSLRLSCAASGFTFSSYAMSWVRQAPGKGLEWVSVISAWGHVKYYADSVKGRFTISRDNSKNTLYLQMNSLRAEDTAVYYCARWGDEGFDIWGQGTLVTVSS VL: DIQMTQSPSSLSASVGDRVTITCRASQGISNWLAWYQQKPGKAPKLLIYGASSLQSGVPSRFSGSGSGTDFTLTISSLQPEDFAVYYCQQYSSFPTTFGQGTKVEIKR | 36.8% | 82% | 33% |  | 
5 | MOR10703 (antibody, human IgG1, kappa, V domains shown) VH: EVQLLESGGGLVQPGGSLRLSCAASGFTFSSYAMSWVRQAPGKGLEWVSAINSQGKSTYYADSVKGRFTISRDNSKNTLYLQMNSLRAEDTAVYYCARWGDEGFDIWGQGTLVTVSS VL: DIQMTQSPSSLSASVGDRVTITCRASQGISNWLAWYQQKPGKAPKLLIYGASSLQSGVPSRFSGSGSGTDFTLTISSLQPEDFATYYCQQYSSFPTTFGQGTKVEIKR | 41.6% | 81% | 35% | no binding (tested: up to 10 µg/mL antibody (Example 7)) | no binding (tested: up to 10 µg/mL antibody (Example 7))
6 | MOR10701 (antibody, human IgG1, kappa, V domains shown) VH: EVQLLESGGGLVQPGGSLRLSCAASGFTFSSYAMSWVRQAPGKGLEWVSVTGAVGRSTYYPDSVKGRFTISRDNSKNTLYLQMNSLRAEDTAVYYCARWGDEGFDIWGQGTLVTVSS VL: DIQMTQSPSSLSASVGDRVTITCRASQGISNWLAWYQQKPGKAPKLLIYGASSLQSGVPSRFSGSGSGTDFTLTISSLQPEDFATYYCQQYSSFPTTFGQGTKVEIKR | 43.6% |  |  |  | 
7 | MOR09974 (antibody, human IgG1, kappa, V domains shown) VH: QVQLVESGGGLVQPGGSLRLSCAASGFTFSSYAMSWVRQAPGKGLEWVSVINPSGNFTNYADSVKGRFTISRDNSKNTLYLQMNSLRAEDTAVYYCARWGDEGFDIWGQGTLVTVSS VL: DIQMTQSPSSLSASVGDRVTITCRASQGISNWLAWYQQKPGKAPKLLIYGASSLQSGVPSRFSGSGSGTDFTLTISSLQPEDFAVYYCQQYSSFPTTFGQGTKVEIKR |  | 20% | 35% |  | 
